US8940871 (University of California, dated 2015)
Each block holds one molecule with its values, some of them ahead of it.

How the values were obtained:
[1] = molecular target: PSCA (form used in Biacore not stated) (UniProt O43653); assay: Biacore, apparent affinity
[2] = molecular target: PSCA on cells (PSCA-transfected B-cell line, LNCaP prostate cancer cells, SKW-PSCA+ cells) (human) (UniProt O43653); assay: immunoreactivity of radioiodinated diabody
purified PSCA-Fc = molecular target: T1, purified PSCA-Fc (UniProt O43653 12-86); assay: competition ELISA, wells coated with PSCA-Fc
T1 construct: The construct is described only by a literature citation; not shown: Fc part not described
T1 sequence (looked up): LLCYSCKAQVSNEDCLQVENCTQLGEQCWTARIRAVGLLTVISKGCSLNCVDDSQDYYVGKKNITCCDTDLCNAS
Method: To examine the structural characteristics of the 2B3 minibody, SDS-PAGE was conducted under reducing and non-reducing conditions. The minibody migrated with a MW of ~47 kDa under reducing conditions and ~95 kDa under non-reducing (FIG. 2). […] The minibody's apparent affinity with respect to its intact antibody counterpart and the original mouse monoclonal antibody (1G8), was determined by competition ELISA.
PSCA relative binding affinity for the minibodies was determined by competition ELISA in which microtiter plate wells were coated with purified PSCA-Fc (Z Gu, T. Olafsen et al. 2006).

[3] = molecular target: T2, PSCA (form used in Biacore not stated) (UniProt O43653 12-86, limits assumed); assay: Biacore, apparent affinity; parental diabody, not affinity matured
T2 construct: The antigen preparation for the Biacore measurements and for the 4-fold statement is not described; also called prostate stem cell antigen
T2 sequence (looked up): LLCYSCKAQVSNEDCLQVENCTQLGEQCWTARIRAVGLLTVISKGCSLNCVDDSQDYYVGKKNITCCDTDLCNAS

[4] = molecular target: T2, PSCA (form used in Biacore not stated); assay: method not stated; humanized antibody compared with murine 1G8

Molecule: affinity matured 2B3 anti-PSCA diabody (scFv dimer, eight amino acid linker)
- Kd [1]: 1.89 nM
- immunoreactivity [2]: 22%

B3: humanized 2B3 anti-PSCA antibody (intact) (antibody, V domains shown)
VH: EVQLVESGGGLVQPGGSLRLSCAASGFNIKDYYIHWVRQAPGKGLEWVAWIDPENGDTEFVPKFQGRATISADTSKNTAYLQMNSLRAEDTAVYYCKTGGFWGQGTLVTVSS
VL: DIQLTQSPSSLSASVGDRVTITCSASSSVRFIHWYQQKPGKAPKRLIYDTSKLASGVPSRFSGSGSGTDFTLTISSLQPEDFATYYCQQWSSSPFTFGQGTKVEIK
notes: Intact humanized antibody; also called intact 2B3 antibody; humanized 2B3 antibody
- fold reduction in affinity (against murine 1G8) [4]: 4 fold

Further lines, results first:

- fold lower affinity than the intact 2B3 antibody (purified PSCA-Fc): ~2 fold
- fold lower relative affinity than the murine antibody (1G8) (purified PSCA-Fc): 9.2 fold
B1: humanized anti-PSCA minibody (2B3 scFv-CH3 dimer) (other)
chain: DIQLTQSPSSLSASVGDRVTITCSASSSVRFIHWYQQKPGKAPKRLIYDTSKLASGVPSRFSGSGSGTDFTLTISSLQPEDFATYYCQQWSSSPFTFGQGTKVEIKGSTSGGGSGGGSGGGGSSEVQLVESGGGLVQPGGSLRLSCAASGFNIKDYYIHWVRQAPGKGLEWVAWIDPENGDTEFVPKFQGRATISADTSKNTAYLQMNSLRAEDTAVYYCKTGGFWGQGTLVTVSSEPKSCDKTHTCPPCGGGSSGGGSGGQPREPQVYTLPPSRDELTKNQVSLTCLVKGFYPSDIAVEWESNGQPENNYKTTPPVLDSDGSFFLYSKLTVDKSRWQQGNVFSCSVMHEALHNHYTQKSLSLSPGK
notes: Covalent dimer of about 95 kDa; also called 2B3 minibody; parental minibody

- Kd [3]: 5.41 nM
B2: parental 2B3 anti-PSCA diabody (scFv dimer, eight amino acid linker) (scFv)
scFv: DIQLTQSPSSLSASVGDRVTITCSASSSVRFIHWYQQKPGKAPKRLIYDTSKLASGVPSRFSGSGSGTDFTLTISSLQPEDFATYYCQQWSSSPFTFGQGTKVEIKGGGSGGGSEVQLVESGGGLVQPGGSLRLSCAASGFNIKDYYIHWVRQAPGKGLEWVAWIDPENGDTEFVPKFQGRATISADTSKNTAYLQMNSLRAEDTAVYYCKTGGFWGQGTLVTVSS
notes: also called parental diabody; 2B3 diabody
